# Data reported in paper PMC5436757, “In vivo and in vitro characterization of DdrC, a DNA damage response protein in Deinococcus radiodurans bacterium”.
# T1: DdrC (Deinococcus radiodurans R1 ATCC 13939, UniProt Q9RYE6 1-231)
# T1 sequence: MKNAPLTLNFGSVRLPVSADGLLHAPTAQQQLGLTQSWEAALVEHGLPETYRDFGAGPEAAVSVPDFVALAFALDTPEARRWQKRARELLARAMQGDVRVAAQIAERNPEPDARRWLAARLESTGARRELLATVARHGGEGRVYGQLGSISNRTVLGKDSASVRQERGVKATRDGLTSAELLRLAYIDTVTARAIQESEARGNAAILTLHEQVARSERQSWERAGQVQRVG
# B1: 81-mer 37% GC (ssDNA)
# DNA: GATTACCACGAGGAGTATCTTAAGAATTCTGATATACTTGAAGAAGACATACAGGAACAAGAACAAAGACTGAACGAGCTT
# B2: oligo-67 ss (ssDNA)
# DNA: CTGTTTAAGAAATTCACCTCGAAAGCAAGCTGATAAACCGATACAATTAAAGGCTCCTTTTGGAGCC
# B3: 81-mer 65.4% GC (ssDNA)
# DNA: GTTGCTGGACGTACAGCGCCACTATGGCCGCCTGGGCTGGACCAGCGGCGAGATTCCGTCCGGGGGCTACCAGTTTCCCAT
# What was measured:
# DdrC [1] = biological target: T1, DdrC; experiment: EMSA; same efficiency as 65.4% GC 81-mer; DdrC 0.175-2.8 uM; Buffer A: 40 mM Tris-HCl pH 7.8, 5 mM MgCl2, 1.5 mM DTT, 50 mM NaCl, 12% glycerol; 4 C (15 min stated for plasmid/viral DNA); gels run at 4 C; conditions: protein: recombinant; tags: C-terminal 6xHis (pET26b); label: 5' Cy5
# DdrC [2] = biological target: T1, DdrC; experiment: EMSA; discrete complex band appears at 40 nM DdrC; 3.3 nM DNA; Buffer A: 40 mM Tris-HCl pH 7.8, 5 mM MgCl2, 1.5 mM DTT, 50 mM NaCl, 12% glycerol; 4 C (15 min stated for plasmid/viral DNA); gels run at 4 C; conditions: protein: recombinant; tags: C-terminal 6xHis (pET26b)
# DdrC [3] = biological target: T1, DdrC; experiment: EMSA; same efficiency as 37% GC 81-mer; DdrC 0.175-2.8 uM; Buffer A: 40 mM Tris-HCl pH 7.8, 5 mM MgCl2, 1.5 mM DTT, 50 mM NaCl, 12% glycerol; 4 C (15 min stated for plasmid/viral DNA); gels run at 4 C; conditions: protein: recombinant; tags: C-terminal 6xHis (pET26b); label: 5' Cy5
binder,measurement,setting,value
B1,binding result,DdrC [1],binds
B2,binding result,DdrC [2],binds
B3,binding result,DdrC [3],binds
